Source: paper PMC3335857, “Heme Oxygenase Isoforms Differ in Their Subcellular Trafficking during Hypoxia and Are Differentially Modulated by Cytochrome P450 Reductase” (PLoS ONE, 2012)

Target: the molecule itself
Test: SEC; 150 µg purified S-HO variant (expressed alone, or full length S-HO co-expressed and co-purified with CPR) on Superdex 200 10/300 GL; 50 mM TEA-HCl, 250 mM NaCl, pH 8.0; peaks blotted with HO antibodies

B1: Strep-tagged full length heme oxygenase-1 (S-HO-1) (enzyme, human, UniProt P09601 1-288, looked up)
chain: MERPQPDSMPQDLSEALKEATKEVHTQAENAEFMRNFQKGQVTRDGFKLVMASLYHIYVALEEEIERNKESPVFAPVYFPEELHRKAALEQDLAFWYGPRWQEVIPYTPAMQRYVKRLHEVGRTEPELLVAHAYTRYLGDLSGGQVLKKIAQKALDLPSSGEGLAFFTFPNIASATKFKQLYRSRMNSLEMTPAVRQRVIEEAKTAFLLNIQLFEELQELLTHDTKDQSPSRAPGLRQRASNKVQDSAPVETPRGKPPLNTRSQAPLLRWVLTLSFLVATVAVGLYAM
notes: human heme oxygenase 1 (HO-1), cloned from human placenta cDNA, full length; also called full length HO-1; source: Sf9, recombinant baculovirus; not shown: Strep-tag II, N-terminal, kept
**Q.** Does B1 bind?
**A.** binds

B2: Strep-tagged full length heme oxygenase-2 (S-HO-2) (enzyme, human, UniProt P30519 1-316, looked up)
chain: MSAEVETSEGVDESEKKNSGALEKENQMRMADLSELLKEGTKEAHDRAENTQFVKDFLKGNIKKELFKLATTALYFTYSALEEEMERNKDHPAFAPLYFPMELHRKEALTKDMEYFFGENWEEQVQCPKAAQKYVERIHYIGQNEPELLVAHAYTRYMGDLSGGQVLKKVAQRALKLPSTGEGTQFYLFENVDNAQQFKQLYRARMNALDLNMKTKERIVEEANKAFEYNMQIFNELDQAGSTLARETLEDGFPVHDGKGDMRKCPFYAAEQDKGALEGSSCPFRTAMAVLRKPSLQFILAAGVALAAGLLAWYYM
notes: human heme oxygenase 2 (HO-2), cloned from human placenta cDNA, full length; also called full length HO-2; source: Sf9, recombinant baculovirus; not shown: Strep-tag II, N-terminal, kept
**Q.** Does B2 bind?
**A.** binds
